Patent US20250325664A1, “COMBINATION THERAPY WITH AN ANTI-COLONY STIMULATING FACTOR 1 RECEPTOR ANTIBODY AND A JAK INHIBITOR” (Incyte Corporation, priority 2024, published 2025)

Key:
subjects with cGVHD [1] = conditions: human, in vivo
[2] = Population PK/PD model of axatilimab: post-hoc exposures and pediatric simulation; parameters: species or system human; conditions: five participants aged 12 to 17 years in cGVHD studies vs adults of same dose groups
From the text: In addition, the developed population PK/PD model for axatilimab was extrapolated to simulate PK in pediatric patients aged 12 to 17 years, using standard allometric exponents of 0.75 for clearance-related parameters and 1.0 for volume of distribution-related parameters.

subjects with cGVHD [3] = assay: Clinical study of axatilimab given as a single agent to subjects with cGVHD after at least two prior lines of systemic therapy

With “axatilimab: humanized IgG4 monoclonal antibody that binds CSF-1R; heavy chain SEQ ID NO:2, light chain SEQ ID NO:3” the severity of infections (subjects with cGVHD [1]) was “Most infections were mild”, the “post-hoc PK exposures in participants aged 12 to 17 years” value [2] was “comparable to those observed in adult participants from the same dose groups” and the “participants with treatment-emergent adverse events (TEAEs)” value (“participants … (TEAEs)” below) (subjects with cGVHD [3]; 0.3 mg/kg Q2W) was 6%. For the same substance, the “reported CMV infections” value (subjects with cGVHD [3]; 0.3 mg/kg Q2W) was “no CMV infections were reported”, the “participants with reduction in modified Lee Symptom Scale (mLSS) score ≤7 points” value (subjects with cGVHD [3]; 0.3 mg/kg Q2W cohort, first 6 cycles) was 55% and the “frequency of treatment-related AEs, any grade and ≥Grade 3” value (subjects with cGVHD [3]; 0.3 mg/kg Q2W vs 1 mg/kg Q2W vs 3 mg/kg Q4W) was “showed dose dependency, with lowest incidence at 0.3 mg/kg Q2W”. For the same substance, the “objective response rate (ORR), primary endpoint” value (“objective response rate (ORR)” below) (subjects with cGVHD [3]; 0.3 mg/kg Q2W, first 6 cycles) was 73.8%, the “participants … (TEAEs)” value (subjects with cGVHD [3]; 1 mg/kg Q2W) was 22% and the “objective response rate (ORR)” value (subjects with cGVHD [3]; 1 mg/kg Q2W, first 6 cycles) was 66.7%. For the same substance, the “participants … (TEAEs)” value (subjects with cGVHD [3]; 3 mg/kg Q4W) was 18%, the “objective response rate (ORR)” value (subjects with cGVHD [3]; 3 mg/kg Q4W, first 6 cycles) was 50% and the “most common TEAEs” value (subjects with cGVHD [3]; all dose cohorts) was “elevated aspartate aminotransferase/alanine aminotransferase (AST/ALT), creatine phosphokinase (CPK), lipase, amylase, and lactate dehydrogenase levels as well as periorbital edema”. The “reported CMV infections (number)” value (subjects with cGVHD [3]; higher dose cohorts) was 2.
